Positions count from the first letter of the chain named.
B1: humanized antibody 18A10 H2L2 (antibody, V domains shown)
VH: EVQLVQSGGGLVQPGGSLKLSCAASGFTFSSYGMSWVRQAPGKGLDWVATISGGGRDTYYPDSVKGRFTISRDNSKNNLYLQMNSLRAEDTALYYCARQKGEAWFAYWGQGTLVTVSS
VL: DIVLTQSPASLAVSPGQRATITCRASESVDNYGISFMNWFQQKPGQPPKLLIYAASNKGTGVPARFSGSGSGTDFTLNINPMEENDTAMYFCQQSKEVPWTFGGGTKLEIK
notes: also called H2L2 antibody
B2: humanized antibody 18A10 H3L3 (antibody, V domains shown)
VH: B1 VH with N78T, L93V
VL: DIVLTQSPASLAVSPGQRATITCRASESVDNYGISFMNWYQQKPGQPPKLLIYAASNKATGVPARFSGSGSGTDFTLNINPMEANDTAVYFCQQSKEVPWTFGGGTKLEIK
notes: also called H3L3 antibody
B3: humanized antibody 18A10 H1L1 (antibody, V domains shown)
VH: B1 VH with A40T, G42E
VL: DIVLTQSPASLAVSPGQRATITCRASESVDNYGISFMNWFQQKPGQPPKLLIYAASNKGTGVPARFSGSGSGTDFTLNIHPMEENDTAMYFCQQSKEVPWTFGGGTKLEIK
notes: also called H1L1 antibody

What follows are binders tested against T1, PD-1-mIgGFc fusion protein (assay: competitive ELISA on coated PD-1-mIgGFc; competitor PDL1-mIgG2aFc 0.3 µg/ml; antibody 1.5 µg/ml diluted 1:3; replicate 2).
T1 construct: also called PD-1-mFc; PD-1-mIgGFc antigen
Procedure: (§1) A 96-well ELISA plate was coated with PD-1-mIgGFc antigen in a concentration of 0.5 μg/ml (50 μl per well) by incubation at 4° C. overnight.
(§2) The 18A10 H1L1, 18A10 H2L2 and 18A10 H3L3 antibodies each were diluted from 3 μg/ml in series by 1:3, with 7 gradient antibody solutions obtained for each antibody. The 7 gradient antibody solutions for each antibody and the blank PBS control (50 μl per well) were respectively added into the blocked 96-well ELISA plate for incubation at room temperature for 10 minutes.
(§3) After the 96-well ELISA plate was washed with the PBST buffer for three times and gently patted to dryness, goat anti-mouse IgG-HRP (H+L) as a secondary antibody in 1:5000 dilution (50 μl per well) was added for incubation at 37° C. for 1 hour.

T1 sequence (chain, as listed by the source limits assumed): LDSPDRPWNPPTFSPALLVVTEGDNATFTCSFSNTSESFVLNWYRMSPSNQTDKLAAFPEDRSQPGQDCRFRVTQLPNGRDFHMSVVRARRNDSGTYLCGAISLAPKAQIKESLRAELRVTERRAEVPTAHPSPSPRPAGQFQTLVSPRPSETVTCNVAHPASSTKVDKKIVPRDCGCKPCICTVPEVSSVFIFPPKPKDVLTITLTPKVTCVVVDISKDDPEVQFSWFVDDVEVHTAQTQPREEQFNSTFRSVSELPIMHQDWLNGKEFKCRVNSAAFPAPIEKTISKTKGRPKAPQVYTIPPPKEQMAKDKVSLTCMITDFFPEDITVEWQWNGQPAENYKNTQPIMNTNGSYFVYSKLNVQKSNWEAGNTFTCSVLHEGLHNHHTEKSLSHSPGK

Going from B1 to B2, the “absorbance at 450 nm (competition)” value rises from 0.097 to 0.108.

For B3, the “absorbance at 450 nm (competition)” value was 0.109.

The binders below were run against T1, PD-1-mIgGFc fusion protein (assay: competitive ELISA on coated PD-1-mIgGFc; competitor PDL1-mIgG2aFc).
Procedure: as §1, §2

B1 and B2 are within 1.5-fold of each other in EC50: 0.838 nM for the first, 1.19 nM for the second.

In the case of B3, the EC50 is reported as 0.992 nM.

These binders were tested against T1, PD-1-mIgGFc fusion protein (assay: competitive ELISA on coated PD-1-mIgGFc; competitor PDL1-mIgG2aFc 0.3 µg/ml; antibody 1.5 µg/ml diluted 1:243; replicate 1).
Procedure: as §1, §2, §3

Going from B1 to B2, the “absorbance at 450 nm (competition)” value rises from 1.16 to 1.2.

For B3, the “absorbance at 450 nm (competition)” value was 1.26.

Each binder was assayed against T1, PD-1-mIgGFc fusion protein (assay: ELISA on coated PD-1-mFc).
Procedure: (§4) An ELISA plate was coated with PD-1-mFc antigen in a concentration of 0.5 μg/ml (50 μl per well) by incubation at 4° C. overnight.
(§5) The absorbance of solution in each well was measured with the microplate reader under a wavelength of 450 nm.

B1 and B2 are within 1.5-fold of each other in EC50: 0.111 nM for the first, 0.144 nM for the second.

B3 gave an EC50 of 0.156 nM.

What follows are binders tested against T1, PD-1-mIgGFc fusion protein (assay: competitive ELISA on coated PD-1-mIgGFc; competitor PDL1-mIgG2aFc 0.3 µg/ml; antibody 1.5 µg/ml diluted 1:81; replicate 2).
Procedure: as §1, §2, §5

First: B1
Second: B2
The “absorbance at 450 nm (competition)” value of the first is lower: 1.1 for the first, 1.19 for the second.

In the case of B3, the “absorbance at 450 nm (competition)” value is reported as 1.14.

The binders below were run against T1, PD-1-mIgGFc fusion protein (assay: ELISA on coated PD-1-mFc; antibody 1 µg/ml diluted 1:81; replicate 1).
Procedure: as §4
The ELISA plate coated with the PD-1-mFc antigen was blocked with 1% BSA in the PBS buffer at 37° C. for 2 hours, and washed with 1×PBST buffer containing 1% Tween-20 for three times, with gently patting to dryness.
as §5

Compared with B1, B2 is lower in “absorbance at 450 nm” value: 1.04 for the first, 0.928 for the second.

In the case of B3, the “absorbance at 450 nm” value is reported as 0.883.

What follows are binders tested against T1, PD-1-mIgGFc fusion protein (assay: competitive ELISA on coated PD-1-mIgGFc; competitor PDL1-mIgG2aFc 0.3 µg/ml; antibody 1.5 µg/ml diluted 1:81; replicate 1).
Procedure: as §1, §2, §5

B1 and B2 are the same in “absorbance at 450 nm (competition)” value: 1.09 for the first, 1.09 for the second.

In the case of B3, the “absorbance at 450 nm (competition)” value is reported as 1.29.

These binders were tested against T2, PD-1 antigen stably expressed on the surface of BB007 cells (UniProt Q15116 25-288, limits assumed) (assay: flow cytometry on BB007 cells; antibody 1 nM).
T2 construct: whole, on cells; also called target protein PD-1 on the surface of the BB007 cell
Procedure: (§6) The binding efficiencies of H1L1, H2L2 and H3L3 antibodies to PD-1 antigen stably expressed on the surface of cells (named as BB007 cells) were determined by flow cytometry. The BB007 cells were obtained by routine trypsin digestion, and then washed with PBS buffer once, followed by dividing into several tubes, with 2×10⁵ cells per tube. After dilution into concentrations of 20 nM, 10 nM, 5 nM, 1 nM, 0.1 nM and 0 nM with the PBS buffer containing 1% BSA for each of the H1L1, H2L2 and H3L3 antibodies, individual antibodies in a volume of 100 μl were added into individual tubes and incubated on ice for 1 hour. After the mixture was washed with the PBS buffer once, 100 μl FITC-Goat-Anti-Human IgG (in 1:500 dilution) was added for each tube and incubated on ice for 1 hour, followed by addition of 300 μl the PBS buffer for detecting fluorescence signal with a FITC channel on the flow cytometer.

T2 sequence (Q15116 25-288 limits assumed): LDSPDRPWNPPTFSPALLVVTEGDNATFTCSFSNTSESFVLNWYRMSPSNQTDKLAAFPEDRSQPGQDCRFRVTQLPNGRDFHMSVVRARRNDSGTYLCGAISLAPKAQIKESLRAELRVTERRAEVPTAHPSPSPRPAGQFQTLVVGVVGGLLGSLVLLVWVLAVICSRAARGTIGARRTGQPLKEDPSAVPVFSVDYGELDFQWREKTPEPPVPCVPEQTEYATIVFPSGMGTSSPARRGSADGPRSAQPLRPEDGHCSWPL

Compared with B1, B2 is higher in fluorescence intensity: 92.5 for the first, 110 for the second.

Binder B3 has a fluorescence intensity of 64.4.

What follows are binders tested against T1, PD-1-mIgGFc fusion protein (assay: competitive ELISA on coated PD-1-mIgGFc; competitor PDL1-mIgG2aFc 0.3 µg/ml; antibody 1.5 µg/ml diluted 1:27; replicate 2).
Procedure: as §1, §2, §5

Compared with B1, B2 is higher in “absorbance at 450 nm (competition)” value: 0.903 for the first, 0.986 for the second.

For B3, the “absorbance at 450 nm (competition)” value was 1.04.

The binders below were run against T1, PD-1-mIgGFc fusion protein (assay: ELISA on coated PD-1-mFc; antibody 1 µg/ml diluted 1:9; replicate 1).
Procedure: as §4
(§7) After the ELISA plate was washed with the PBST buffer for three times and gently patted to dryness again, TMB as a developer in 50 μl per well was added for incubation at room temperature for 5 to 10 minutes.
as §5

Going from B1 to B2, the “absorbance at 450 nm” value falls from 2.18 to 1.95.

B3 was tested, and the “absorbance at 450 nm” value was 1.96.

Each binder was assayed against T2, PD-1 antigen stably expressed on the … (assay: flow cytometry on BB007 cells; antibody 0.1 nM).
Procedure: as §6

Going from B1 to B2, the fluorescence intensity rises from 19.1 to 21.2.

B3 gave a fluorescence intensity of 19.

The binders below were run against T1, PD-1-mIgGFc fusion protein (assay: competitive ELISA on coated PD-1-mIgGFc; competitor PDL1-mIgG2aFc 0.3 µg/ml; antibody 1.5 µg/ml diluted 1:27; replicate 1).
Procedure: as §1, §2, §3

Compared with B1, B2 is higher in “absorbance at 450 nm (competition)” value: 0.951 for the first, 1 for the second.

In the case of B3, the “absorbance at 450 nm (competition)” value is reported as 1.06.

These binders were tested against T1, PD-1-mIgGFc fusion protein (assay: ELISA on coated PD-1-mFc; antibody 1 µg/ml diluted 1:3; replicate 2).
Procedure: as §4, §7, §5

Going from B1 to B2, the “absorbance at 450 nm” value falls from 2.36 to 2.09.

B3 was tested, and the “absorbance at 450 nm” value was 2.34.

The binders below were run against T2, PD-1 antigen stably expressed on the … (assay: flow cytometry on BB007 cells; antibody 5 nM).
Procedure: as §6

Going from B1 to B2, the fluorescence intensity rises from 321 to 343.

With B3 the fluorescence intensity was 252.

What follows are binders tested against T1, PD-1-mIgGFc fusion protein (assay: ELISA on coated PD-1-mFc; antibody 1 µg/ml diluted 1:3; replicate 1).
Procedure: as §4, §7, §5

First: B1
Second: B2
The “absorbance at 450 nm” value of the first is lower: 2.13 for the first, 2.29 for the second.

With B3 the “absorbance at 450 nm” value was 2.35.

What follows are binders tested against T1, PD-1-mIgGFc fusion protein (assay: ELISA on coated PD-1-mFc; antibody 1 µg/ml diluted 1:27; replicate 1).
Procedure: as §4, §7, §5

Compared with B1, B2 is lower in “absorbance at 450 nm” value: 1.78 for the first, 1.58 for the second.

In the case of B3, the “absorbance at 450 nm” value is reported as 1.62.

The binders below were run against T1, PD-1-mIgGFc fusion protein (assay: competitive ELISA on coated PD-1-mIgGFc; competitor PDL1-mIgG2aFc 0.3 µg/ml; antibody 1.5 µg/ml diluted 1:9; replicate 2).
Procedure: as §1
[…] The 7 gradient antibody solutions for each antibody and the blank PBS control (50 μl per well) were respectively added into the blocked 96-well ELISA plate for incubation at room temperature for 10 minutes.
as §3

First: B1
Second: B2
The “absorbance at 450 nm (competition)” value of the first is lower: 0.506 for the first, 0.678 for the second.

B3 was tested, and the “absorbance at 450 nm (competition)” value was 0.586.

These binders were tested against T2, PD-1 antigen stably expressed on the … (assay: flow cytometry on BB007 cells; antibody 20 nM).
Procedure: as §6

Compared with B1, B2 is higher in fluorescence intensity: 329 for the first, 367 for the second.

With B3 the fluorescence intensity was 358.

The binders below were run against T1, PD-1-mIgGFc fusion protein (assay: competitive ELISA on coated PD-1-mIgGFc; competitor PDL1-mIgG2aFc 0.3 µg/ml; antibody 1.5 µg/ml diluted 1:9; replicate 1).
Procedure: as §1, §2, §3

First: B1
Second: B2
The “absorbance at 450 nm (competition)” value of the first is lower: 0.474 for the first, 0.7 for the second.

With B3 the “absorbance at 450 nm (competition)” value was 0.625.

Reference: US20190040138A1 (AKESO BIOPHARMA, published 2019)
